The values that follow come from patent US20160115201, “PEPTIDES BINDING TO PARALLEL-STRANDED G-QUADRUPLEXES” (NANYANG TECHNOLOGICAL UNIVERSITY, published 2016).

Series [1] addresses T1, Rhau55 (N-terminal fragment of RHAU/DHX36) (UniProt Q9H2U1 SEQ:3-55).
T1 sequence: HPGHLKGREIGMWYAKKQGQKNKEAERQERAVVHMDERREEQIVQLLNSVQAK
The series is described as follows: EMSA; 70 mM KCl, 20 mM phosphate pH 6.8. The settings on record: tags: expressed in E. coli. As to the method:
(§1) The ratio between Rhau55 and Nucleic acids is indicated on top of each lane. DNA concentrations were fixed at 100 μM, in 70 mM KCL and 20 mM phosphate buffer (pH=6.8).

Series [2] addresses T1, Rhau55 (N-terminal fragment of …). The series is described as follows: NMR imino protons, mixture with T95_2T; only T95_2T peaks affected. To be noted: tags: expressed in E. coli; non-parallel G4 form 1.
For series [3] the target is unchanged. The series is described as follows: EMSA; 70 mM KCl, 20 mM phosphate pH 6.8, room temperature. The settings on record: tags: expressed in E. coli; parallel (propeller) G4.
Series [4] has the same target. The series is described as follows: EMSA; RNA G4; 70 mM KCl, 20 mM phosphate pH 6.8. To be noted: tags: expressed in E. coli; parallel RNA G4. As to the method:
as §1

With TGAGGGTGGTGAGGGTGGGGA (structured_DNA) [Pu24T], the binding result in series [1] (parallel G4) is recorded as “binds”.

TTGGGTTAGGGTTAGGGTTAGGGA (structured_DNA) [HT1]: the binding result in series [2] is given as “no binding”. On to GGGGTGGGAGGAGGGT (structured_DNA) [93del], for which the binding result in series [1] (interlocked dimeric parallel G4) is “binds”.

Turning to TTGGGTGGGTGGGTGGGT (structured_DNA) [T95_2T], binding in series [3] was put at a Kd of 989 nM. In the case of GGGUUAGGGU (ssRNA) [10-nt TER], the binding result in series [4] is reported as “binds”. GGGUUGCGGAGGGUGGGC (ssRNA) [TERC18]: the binding result in series [4] is “binds”. For UAGGGUUAGGGU (ssRNA) [12-nt TER], the binding result in series [4] is “binds”. For the molecule AAGGGTGGGTGTAAGTGTGGGTGGGT (structured_DNA) [CEB25], the binding result in series [1] (parallel G4) is listed as “binds”. Same read-out and setting: under AGGGGGGAGGGAGGGTGG (structured_DNA) [CEB1] stands “binds”.
